Source: patent US20230391850A1

How the values were obtained:
[1] = target: human polyclonal IgG (Gammanorm) (human); assay: Biacore SPR, remaining IgG binding capacity after 100 NaOH cycles as a ratio to the reference ligand SEQ ID NO: 12
[2] = target: human polyclonal IgG (Gammanorm) (human); assay: Biacore SPR, ligand on CM5 chip, 1 mg/ml human polyclonal IgG flowed over; signal left after 100 cycles of 10 min in 0.5 M NaOH
[3] = target: human polyclonal IgG (Gammanorm) (human); assay: Biacore SPR, reference ligand on CM5 chip, 1 mg/ml human polyclonal IgG; signal left after 100 cycles of 10 min in 0.5 M NaOH (run beside SEQ ID NO 8)
[4] = target: human polyclonal IgG (Gammanorm) (human); assay: Biacore SPR, reference ligand on CM5 chip, 1 mg/ml human polyclonal IgG; signal left after 100 cycles of 10 min in 0.5 M NaOH (run beside SEQ ID NO 9)

## Zvar(Q9A, N11R, Q40V, A42K, N43A, L44I)1 (designed binder)
[1]
  Capacity relative to Ref: 1.14
[2]
  Capacity after 100 cycles (remaining IgG binding capacity): 74%

## Zvar(Q9A,N11E,Q40V,A42K,N43A,L44Di (SEQ ID NO: 12) (designed binder)
[3]
  Reference capacity after 100 cycles (remaining IgG binding capacity): 65%
[4]
  Reference capacity after 100 cycles (remaining IgG binding capacity): 64%

## Zvar(Q9W, N11E, Q40V, A42K, N43A, L44I)1 (designed binder)
[1]
  Capacity relative to Ref: 1.09
[2]
  Capacity after 100 cycles (remaining IgG binding capacity): 70%
